Data from US20190185581A1 (University of California, published 2019).

What was measured:
[1] = biological target: T1, catalytic domain of MMP-14 (cdMMP-14) (human, UniProt P50281 114-287, limits assumed, biotinylated (Sulfo-NHS-LC-Biotin) where immobilised via streptavidin); assay: cell-based or functional assay
[2] = biological target: T1, catalytic domain of MMP-14 (cdMMP-14); assay: cell-based or functional assay; remark: listed apart in the source
[3] = biological target: T1, catalytic domain of MMP-14 (cdMMP-14); assay: SPR (Biacore), KD from koff/kon
[4] = biological target: T2, MMP-14 catalytic domain mutant F260A (human, UniProt P50281 114-287, limits assumed); assay: cell-based or functional assay
[5] = biological target: MMP-14 catalytic domain mutant T190A (human, UniProt P50281 114-287, limits assumed); assay: cell-based or functional assay
[6] = biological target: MMP-14 catalytic domain mutant F198A (human, UniProt P50281 114-287, limits assumed); assay: cell-based or functional assay
[7] = biological target: MMP-14 catalytic domain mutant Y203A (human, UniProt P50281 114-287, limits assumed); assay: cell-based or functional assay
[8] = biological target: MMP-14 catalytic domain mutant F204A (human, UniProt P50281 114-287, limits assumed); assay: cell-based or functional assay
[9] = biological target: MMP-14 catalytic domain mutant N231A (human, UniProt P50281 114-287, limits assumed); assay: cell-based or functional assay
[10] = biological target: T1, catalytic domain of MMP-14 (cdMMP-14); assay: summary sentence on the Examples; enzyme inhibition
[11] = biological target: T1, catalytic domain of MMP-14 (cdMMP-14); assay: summary sentence on the Examples; method not given
[12] = biological target: T1, catalytic domain of MMP-14 (cdMMP-14); assay: ELISA, Fab titrated on immobilised biotin-cdMMP-14, anti-Fab-HRP
[13] = biological target: T1, catalytic domain of MMP-14 (cdMMP-14); assay: SPR (Biacore), MMP-14 amine-coupled to the chip, Fab as analyte, 25 °C
[14] = biological target: T1, catalytic domain of MMP-14 (cdMMP-14); assay: ELISA, Fab titrated on immobilised MMP-14 catalytic domain, anti-Fab-HRP
Method: (§1) Bound Fabs were detected using the anti-Fab-HRP conjugate. The half-maximal effective concentration (EC₅₀) was calculated from a four-parametric logistic curve-fitting analysis.

[15] = biological target: T2, MMP-14 catalytic domain mutant F260A; assay: competitive ELISA: 10 nM Fab 3A2 incubated with the mutant, then captured on immobilised wild-type MMP-14
Method: as §1

[16] = biological target: catalytic domain of MMP-2 (human, UniProt P08253 115-449, limits assumed, biotinylated (Sulfo-NHS-LC-Biotin)); assay: ELISA, purified Fab at 50, 100, 250 and 500 nM on immobilised MMP catalytic domain, anti-Fab-HRP, OD450
[17] = biological target: T3, catalytic domain of MMP-9 (cdMMP-9) (human, UniProt P14780 107-443, limits assumed); assay: as above
T3 sequence: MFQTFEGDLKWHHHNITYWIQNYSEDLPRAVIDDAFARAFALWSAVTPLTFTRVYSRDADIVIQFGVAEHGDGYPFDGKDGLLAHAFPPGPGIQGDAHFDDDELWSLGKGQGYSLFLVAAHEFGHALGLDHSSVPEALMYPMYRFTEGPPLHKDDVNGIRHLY

[18] = biological target: T1, catalytic domain of MMP-14 (cdMMP-14); assay: surface plasmon resonance (Biacore), MMP-14 immobilised on the chip, Fab 3A2 injected at 10 nM; table beside the sensorgrams
[19] = biological target: T1, catalytic domain of MMP-14 (cdMMP-14); assay: surface plasmon resonance (Biacore), MMP-14 immobilised on the chip, Fab 3A2 injected at 15 nM; table beside the sensorgrams
[20] = biological target: T1, catalytic domain of MMP-14 (cdMMP-14); assay: surface plasmon resonance (Biacore), MMP-14 immobilised on the chip, Fab 3A2 injected at 20 nM; table beside the sensorgrams

Chain of catalytic domain of MMP-2 (P08253 other isoform, or with tags, fused parts or gaps limits assumed): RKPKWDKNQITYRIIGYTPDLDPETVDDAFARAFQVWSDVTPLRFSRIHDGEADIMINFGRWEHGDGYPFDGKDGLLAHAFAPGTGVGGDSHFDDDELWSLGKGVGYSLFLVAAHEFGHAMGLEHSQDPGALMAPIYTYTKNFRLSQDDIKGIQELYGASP

B1: Fab 3A2 (Fab, V domains shown)
VH: EVQLVESGGGLVQPGGSLRLSCAASGFNLSSSSMHWVRQAPGKGLEWVASIYPSYSYTYYADSVKGRFTISADTSKNTAYLQMNSLRAEDTAVYYCARVKLQKDKSHQWIRNLVATPYGRYVMDYWGQGTLVTVSS
VL: DIQMTQSPSSLSASVGDRVTITCRASQSVSSAVAWYQQKPGKAPKLLIYSASSLYSGVPSRFSGSRSGTDFTLTISSLQPEDFATYYCQQYGYPITFGQGTKVEIKR
notes: also called R3C9; not shown: His tag at the C-terminus of the heavy chain
IC50 by FRET Assay [1]: 9.7 nM | Inhibition potency (FRET IC50) [2]: 9.7 nM | Kd [3]: 4.76 nM | inhibition (%) of peptide cleavage: 50 nM MMP-14 mutant, 5 uM Fab 3A2, 1 uM quenched fluorescent substrate [4]: 0% | inhibition (%) of peptide cleavage: 50 nM MMP-14 mutant, 5 uM Fab 3A2, 1 uM quenched fluorescent substrate [5]: 95% | inhibition (%) of peptide cleavage: 50 nM MMP-14 mutant, 5 uM Fab 3A2, 1 uM quenched fluorescent substrate [6]: 98% | inhibition (%) of peptide cleavage: 50 nM MMP-14 mutant, 5 uM Fab 3A2, 1 uM quenched fluorescent substrate [7]: 98% | inhibition (%) of peptide cleavage: 50 nM MMP-14 mutant, 5 uM Fab 3A2, 1 uM quenched fluorescent substrate [8]: 96% | inhibition (%) of peptide cleavage: 50 nM MMP-14 mutant, 5 uM Fab 3A2, 1 uM quenched fluorescent substrate [9]: 90% | Ki [10]: 10 nM | Kd [11]: 4.85 nM | EC50 [12]: 3.8 nM | koff [13]: 0.00179 s⁻¹ | kon [13]: 368000 M⁻¹ s⁻¹ | EC50 [14]: 3.8 nM | binding result [15]: no binding (tested: 0-2,000 nM mutant) | binding result [16]: no binding (tested: 500 nM) | binding result [17]: no binding (tested: 500 nM) | Kd [18]: 1.74 nM | koff [18]: 0.000667 s⁻¹ | kon [18]: 383000 M⁻¹ s⁻¹ | Kd [19]: 3.64 nM | koff [19]: 0.00125 s⁻¹ | kon [19]: 344000 M⁻¹ s⁻¹ | Kd [20]: 9.17 nM | koff [20]: 0.00347 s⁻¹ | kon [20]: 378000 M⁻¹ s⁻¹
